According to PMC4686813:

Biological target: Sec61β (dog (endogenous in canine pancreatic microsomes)) (UniProt P60467)
Assay: cross-linking; BMH on microsomes stripped of ribosomes with EDTA and high salt (EKRM); western blot with anti-Sec62; also with purified canine ribosomes added back

Sequence of UniProt P60467 (P60467 whole entry): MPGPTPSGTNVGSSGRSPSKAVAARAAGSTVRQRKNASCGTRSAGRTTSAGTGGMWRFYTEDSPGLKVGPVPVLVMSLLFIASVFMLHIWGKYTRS

percent of Sec62 cross-linked to Sec61β: > 50%
Substance: Sec62 (from UniProt P82009 1-39) (natural protein)
